Where “and” joins values, the source holds several entries; their conditions need not be identical. Identical values can stand only once.
Experiments:
[1] = molecular target: T1, dog IL-12 (PBMC supernatant) (dog, UniProt Q28267 26-222; Q28268 23-329); assay: cell-based or functional assay
T1 sequence (looked up) 1: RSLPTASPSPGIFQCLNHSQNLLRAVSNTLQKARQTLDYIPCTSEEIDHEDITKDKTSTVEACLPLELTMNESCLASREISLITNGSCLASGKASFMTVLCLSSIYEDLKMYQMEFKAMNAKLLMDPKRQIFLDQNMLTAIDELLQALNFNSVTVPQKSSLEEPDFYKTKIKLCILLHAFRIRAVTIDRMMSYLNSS
T1 sequence (looked up) 2: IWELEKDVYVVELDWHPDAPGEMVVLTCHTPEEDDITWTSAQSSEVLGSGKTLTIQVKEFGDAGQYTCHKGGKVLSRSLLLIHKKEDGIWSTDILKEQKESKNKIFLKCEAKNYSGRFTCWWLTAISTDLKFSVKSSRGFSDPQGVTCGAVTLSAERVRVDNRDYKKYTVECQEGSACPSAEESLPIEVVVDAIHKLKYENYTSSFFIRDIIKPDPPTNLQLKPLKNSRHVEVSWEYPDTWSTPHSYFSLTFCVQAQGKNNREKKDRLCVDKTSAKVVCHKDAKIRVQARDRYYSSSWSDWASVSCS

recombinant rhesus IL-12 = molecular target: T2, recombinant rhesus IL-12 (rhesus monkey, UniProt P48091 23-219; P48095 23-328); assay: cell-based or functional assay
T2 sequence (looked up) 1: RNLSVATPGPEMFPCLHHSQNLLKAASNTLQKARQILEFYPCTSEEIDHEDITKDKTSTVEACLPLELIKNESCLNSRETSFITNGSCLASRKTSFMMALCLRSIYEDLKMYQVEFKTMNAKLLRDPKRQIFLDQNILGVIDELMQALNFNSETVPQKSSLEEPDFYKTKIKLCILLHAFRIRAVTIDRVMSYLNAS
T2 sequence (looked up) 2: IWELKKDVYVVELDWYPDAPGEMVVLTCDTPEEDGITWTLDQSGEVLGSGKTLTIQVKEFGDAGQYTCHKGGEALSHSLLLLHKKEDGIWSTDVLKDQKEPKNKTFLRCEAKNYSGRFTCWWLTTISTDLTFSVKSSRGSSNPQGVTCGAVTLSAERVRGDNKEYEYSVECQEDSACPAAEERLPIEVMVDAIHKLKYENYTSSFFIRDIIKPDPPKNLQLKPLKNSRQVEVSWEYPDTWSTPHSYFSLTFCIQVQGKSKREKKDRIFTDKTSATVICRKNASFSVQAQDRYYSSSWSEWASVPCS

[2] = molecular target: T3, recombinant human IL-12 (rhIL-12) (human, UniProt P29459 23-219; P29460 23-328); assay: cell-based or functional assay
T3 sequence (looked up) 1: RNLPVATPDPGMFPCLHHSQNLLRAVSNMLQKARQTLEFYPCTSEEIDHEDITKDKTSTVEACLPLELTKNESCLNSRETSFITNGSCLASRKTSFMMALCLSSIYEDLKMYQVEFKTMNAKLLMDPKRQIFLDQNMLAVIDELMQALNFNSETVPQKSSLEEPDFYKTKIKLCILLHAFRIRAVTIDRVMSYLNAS
T3 sequence (looked up) 2: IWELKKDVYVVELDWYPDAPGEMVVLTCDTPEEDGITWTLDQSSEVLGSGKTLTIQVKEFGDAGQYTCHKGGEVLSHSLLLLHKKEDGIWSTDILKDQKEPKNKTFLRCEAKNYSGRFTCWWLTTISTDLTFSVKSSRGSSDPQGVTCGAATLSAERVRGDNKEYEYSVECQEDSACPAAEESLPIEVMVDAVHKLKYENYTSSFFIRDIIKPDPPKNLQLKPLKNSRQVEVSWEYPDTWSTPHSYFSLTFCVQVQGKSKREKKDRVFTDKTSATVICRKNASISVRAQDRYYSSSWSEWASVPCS

[3] = molecular target: T3, recombinant human IL-12 (rhIL-12); assay: cell-based or functional assay; remark: listed apart in the source
[4] = molecular target: T3, recombinant human IL-12 (rhIL-12); assay: biomolecular interaction assay (BIAcore)
Description: (§1) Three independent experiments were performed, and the values shown are averages for the three experiments. From these measurements, the apparent dissociation (kd) and association (kₐ) rate constants were derived and used to calculate a Kd value for the interaction (see Table 10).

[5] = molecular target: T3, recombinant human IL-12 (rhIL-12); assay: receptor binding assay, 125I-hIL-12 on PHA blasts
Description: PHA blast cells isolated as described above, were washed once and resuspended in binding buffer to a cell density of 2×10⁷ cells/ml. […] The cell pellet was examined for cell bound radioactivity using a gamma counter. […] Incubations were carried out in duplicate.

[6] = molecular target: T3, recombinant human IL-12 (rhIL-12); assay: BIAcore, captured J695, soluble rhIL-12, mean of three experiments
Description: as §1

[7] = molecular target: T4, chimeric IL-12 (murine p35 subunit with the human IL-12 p40 subunit) (mouse; human, UniProt P43431 23-215; P29460 23-328); assay: inhibition of IFN-γ production in mice given chimeric IL-12
T4 sequence (looked up) 1: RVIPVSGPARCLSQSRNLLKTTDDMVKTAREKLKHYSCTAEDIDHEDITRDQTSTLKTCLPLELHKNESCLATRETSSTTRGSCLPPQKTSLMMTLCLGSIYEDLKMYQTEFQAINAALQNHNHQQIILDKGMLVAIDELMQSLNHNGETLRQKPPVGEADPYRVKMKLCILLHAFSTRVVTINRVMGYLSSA
T4 sequence (looked up) 2: T3 sequence (looked up) 2
Description: The control hulgG1γ was given IP. at a dose of 0.05 mg/kg on days 0, 2, and 4. The mice were bled on day 5, and serum IFN-γ levels were determined by ELISA.

[8] = molecular target: T5, human IL-12 p40 subunit (free p40) (human, UniProt P29460 23-328); assay: competition ELISA: soluble human IL-12 p40 (2 nM) against J695 binding to immobilized human IL-12
T5 sequence (looked up): T3 sequence (looked up) 2
Description: The plates were washed 4 times and incubated for 1 h at room temperature with 100 μl mouse anti-human lambda-HRP (1:500 in PBS-T/BSA, Southern Biotech. Ass. Inc., Birmingham, Ala.). The plates were washed 4 times and developed with ABTS (Kirkegaard & Perry Lab, Gaithersburg, Md.) for 20-30 minutes in the dark. The OD₄₅₀ nm was read using a microplate reader (Molecular Devices, Menlo Park, Calif.).

B1: J695 (antibody, human IgG1, V domains shown)
VH: QVQLVESGGGVVQPGRSLRLSCAASGFTFSSYGMHWVRQAPGKGLEWVAFIRYDGSNKYYADSVKGRFTISRDNSKNTLYLQMNSLRAEDTAVYYCKTHGSHDNWGQGTMVTVSS
VL: QSVLTQPPSVSGAPGQRVTISCSGSRSNIGSNTVKWYQQLPGTAPKLLIYYNDQRPSGVPDRFSGSKSGTSASLAITGLQAEDEADYYCQSYDRYTHPALLFGTGTKVTVLG
notes: human IgG1 with lambda light chain
- IC50 (M), bioassay, Dog IL-12 PBMC sup [1]: 3.5e-10 M
- IC50 (M), bioassay, Rhesus IL-12 Purified (recombinant rhesus IL-12): 1e-11 M
- PHA blast IC50 [2]: 5.8 pM
- IFN-γ Assay IC50 [3]: 5.8 pM and 4.3 pM
- PHA blast Assay IC50 [3]: 5.5 pM and 4.4 pM
- Kd [4]: 97.4 pM
- IC50 [5]: 50 pM
- Kd [6]: 0.0974 nM and 0.014 µg/mL

B2: J695 (antibody, V domains shown)
VH: B1 VH
VL: B1 VL
notes: Human IgG1 with lambda light chain (detected with anti-human lambda); Made in CHO or COS cells
- binding result [7]: binds
- binding result [8]: binds

Reference: patent US20150037348A1 (AbbVie / Abbott, published 2015)
